From patent US20020133001A1, “Therapeutic agents and methods of use thereof for treating an amyloidogenic disease” (Praecis Pharmaceuticals Inc., priority 2000, published 2002)

B1: Fc domain without a β-amyloid fragment: control protein: mouse IgG1 Fc region with no amyloid binding sequence (protein)
chain: VPRDCGCKPCICTVPEVSSVFIFPPKPKDVLTITLTPKVTCVVVDISKDDPEVQFSWFVDDVEVHTAQTQPREEQFNSTFRSVSELPIMHQDWLNGKEFKCRVNSAAFPAPIEKTISKTKGRPKAPQVYTIPPPKEQMAKDKVSLTCMITDFFPEDITVEWQWNGQPAENYKNTQPIMNTNGSYFVYSKLNVQKSNWEAGNTFTCSVLHEGLHNHHTEKSLSHSPGK

Legend:
[1] = molecular target: T1, Aβ fibrils (aged Aβ 1-40) (Homo sapiens, UniProt P05067); experiment: Fibril binding assay; details: compound at 2 μM-200 fM dilutions; FIG. 9
T1 construct: 200 μM Aβ 1-40 peptide solution; purchased Bachem (Torrance, Calif.)
Method: The ability of a compound of the invention to modulate (e.g., inhibit or promote) the aggregation of natural β-AP when combined with the natural β-AP was examined using the Fibril binding assay. Natural β-AP (β-AP1-40) for use in the aggregation assays is commercially available from Bachem (Torrance, Calif.).
The following materials are needed for the Fibril binding assay: Millipore multifilter apparatus; 12×75 glass tubes; GF/F 25 mm glass filters; PBS/0.1% tween 20 at 4° C. (PBST); Aβ fibrils; radioactive compound; nonradioactive compound; Eppendorf repeat pipettor with tips; labels; forceps; and vacuum.
In this assay, each sample was run in triplicate. […]
The radioactively labeled compound was prepared using standard radioactive safety protocols by making a dilution into a PBS/0.1% tween-20 solution such that there was a final concentration of 20,000 dpm per 100 μL. […] The samples were covered with parafilm and incubated at 37° C. inside plastic radioactivity bags overnight.
To filter the samples, the filters were pre-wetted in a small volume of PBST. […] One minute counts were recorded, the data was plotted, and the Prism program (GraphPAD) was used to analyze the graph, according to the manufacturer's instructions.

amyloid plaques [2] = experiment: Immunohistochemistry: staining of amyloid plaques in brain sections with conditioned medium containing fusion proteins; format: binding; details: 20-22 week mice transgenic for Swedish mutation APP and presenilin M146L; COS conditioned medium; developed with anti-mouse antibody
Method: Twenty micron serial coronal brain sections were prepared from 20-22 week mice transgenic for both the Swedish mutation of amyloid precursor protein and presenilin M146L (Ref.). All incubations were performed at room temperature. Sections were washed once in 100 mM Tris, pH 7.4 (Tris buffer), incubated in 70% formic acid for 3 minutes, then washed three times in Tris buffer. Endogenous peroxidase activity was blocked by incubating for 20 minutes in 10% methanol, 3% hydrogen peroxide in 40 mM Tris, pH 7.4. Sections were washed three times in Tris buffer then incubated in 0.85% NaCl, 0.1% Triton X-100, 100 mM Tris pH 7.4 (Tris buffer A) for 5 minutes followed by […]) for 15 minutes. Sections were incubated overnight in conditioned medium from cells expressing secreted fusion proteins or anti-β-amyloid polyclonal antibody diluted 1/1000 in Tris buffer B. Sections were washed twice in Tris buffer A and once in Tris buffer B then incubated with biotin-conjugated anti-mouse antibody raised in donkey from Jackson Laboratories diluted 1/500 in Tris buffer A for 1 hour. Sections were washed twice in Tris buffer A and once in Tris buffer B then incubated with avidin-conjugated horse radish peroxidase using the ABC Immunohistochemistry kit from Vector Laboratories. […]

amyloid plaques [3] = experiment: In vivo clearing of amyloid plaques in a mouse model of Alzheimer's disease; details: direct infusion into the cerebral cortex in one hemisphere; APP Swedish/presenilin M146L transgenic mouse
Method: The ability of Aβ(16-30)-Fc to clear amyloid plaques in a mouse model of Alzheimer's disease was assessed. The fusion protein was administered to a mouse transgenic for both the Swedish mutation of amyloid precursor protein and presenilin M146L by direct infusion into the cerebral cortex in one hemisphere. The mouse was sacrificed and the amount of amyloid in brain sections was determined by Thioflavin S staining.

Sequence of amyloid plaques (P05067 672-711 limits assumed): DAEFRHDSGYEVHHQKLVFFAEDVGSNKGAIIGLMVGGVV
T1 sequence (P05067 672-711): as the sequence (P05067 672-711 limits assumed) above

Molecule | inhibition of Aβ aggregation (Fibril binding assay) [1] | staining of amyloid plaques in coronal brain sections (amyloid plaques [2]) | plaque burden at the site of infusion compared to the control hemisphere (Thioflavin S staining) (amyloid plaques [3])
PPI-1019: compound tested in the Fibril binding assay; structure not given | effective inhibitors of Aβ aggregation | – | –
B1 | – | No amyloid plaques were detected | no difference
